Experimental data: the nanobody polyreactivity screen of Harvey et al. (2022)

Assay: yeast display, Sf9 membrane polyspecificity reagent, FACS + sequencing; frameworks hold sequencing errors
Method in brief: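 Sorting gates, low and high (top ~1%), were placed on anti-HA fluorescence to track expression and on streptavidin fluorescence to track reagent binding. A clone's polyreactivity label is taken from the gate it came out of. The reagent was 10% biotinylated, detergent-solubilized Sf9 membrane, applied for 1 hour at 4 °C to galactose-induced yeast display cells.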

| Sequence | polyreactivity (PSR sort gate) |
| --- | --- |
| QVQLQESGGGLCRRAAASSGAASGTISYLNYMGWYRQAPGKEREFVAGINNGTTTNYADSVKGRFTISRDNAKNTVYLQMNSLKLEDTAVYYCAVDPYYTFYFWYWGQGTQLTVSS | high polyreactivity |
| QVQLQESGGGLLQAGGCLSCTASGTILVQGDMGWYRHAPGKERELVATINDGASTYYADSVKGRFTISRDKAKNTVYLQKNSLKPDDTAVYYCAVFTDITTYFGYWGQGTQVTVSS | low polyreactivity |
| QVQLQESGGGLLQAGGSLRLSYAASGYMFPYLAMGWYRQAPGKEREFVAAIGRGSTNNYADSVKGRFTISRDNAKNTAFQQMNSLKPEDTAVYYCAAAASPLTRHLYWGQGSQVTVSS | low polyreactivity |
| QVQLQESGGGLMQAGGNLRLSCAASGYISTHYDMDWYRPAPGKERELVARIDDGAITNYADSVKGRFTISRDNAKNTVYLQMNSLKPEDTAVYYCAVYSGDDYYHDYWGQGTQVTVSS | low polyreactivity |
| QVQLQESGGGLMQAGGSLRLSCAASGNIFLGHTKGWYRQAPGNEREFVAGIARGGNPYNADSVKGRFTISRNNAKNTVYLQKNSLKAEDTAVHYCGVQRSHASDYNYWGQGTQVTVSS | low polyreactivity |
| QVQLQESGGGLMQAGGSQRLSCAASGSISYYSDMGWYRQAPGKEREFVAGIGYGTTTNYADSVKGRFTTSRDNAKNTVYLQMISMKTEDTAVYYCAAYQGNGYEFYYWGQGTQVTVRS | low polyreactivity |
| QVQLQESGGGLVEAGGSLRLSCAASGTISYAPHMGWYRQAPGKERELVAGITIGGTTNYADSVKGRFTISRDNAKNTVYLQMISLSPGDTALYYCAAHYDQYTPFYYWGQGSQVTVSS | low polyreactivity |
| QVQLQESGGGLVHAGGSLRLSCPASGTISFINMMGWYRQAPGRERELVASINFGANTNYADSVKGRFTISRDNAKNTVYLQLKSLKPEDTAVYYCAVYCAWTIGFTYWGQGTQVTVRS | high polyreactivity |
| QVQLQESGGGLVLAGGSLRLNCAESGYISWSFTMGWYRKPTGKEREFVAGITYGGITYYADSVKGRFTISRDNAKNTVYLEMNRLKPEDTAVYYCAAPQSYPYVYVYWGQGTEVTVSS | high polyreactivity |
| QVQLQESGGGLVQACGSLRLSCAASGSISNGDYMGWYRQAPGKEREFVAGINTGSITYYADSVKGRFTISRDNAKNTAYLQMNSLKPEDTAVYYCAATFDAQFREPKGLYYWGQGTQVTVSS | low polyreactivity |
| QVQLQESGGGLVQACGSLRLSCAASGYIFSHQYMGWYRQAPGKERELVASISPGATTNYADSVKGRFTISRDNAKNTVYLQMNSLKPEDTAVYYYAVQTPDVIRHFYWGQGTQVTVSS | high polyreactivity |
| QVQLQESGGGLVQADGSLRLSCAASGSIFGYYYMGWYRQAPGKDRELVATINICGITNYADSVKGRFTISRDNAKNTVYLQMNSLKPDDNAVYYCAADEYAQRDLGYWGQGTQVTVSS | low polyreactivity |
| QVQLQESGGGLVQAGASLRLSCAASGTIFLFRNMGWHRQAPGKERELVAGINGGTTTYYADSVIGRFTISRDNAKNTVYLQMNSLKPDDTAVYNCAAGASRLTYYDYWGLGTQVTVSS | low polyreactivity |
| QVQLQESGGGLVQAGGCLRLSCAASGSIFTYAVMGWYRQAHGKEHELVATIDTGSSTYYADSVKGRITISRDNAKNTLYLQMNSLIPEDTAVYYCAVNTYCRVRYRYWGQGTQVTVSS | high polyreactivity |
| QVQLQESGGGLVQAGGCLSCTASGTIFGQGDMGWSRQSPGKERELVATINDGASTYYADSVKGRFTISRDKAKNTVYLQKNSLKPDDTAVYYCAVLTDITTYFGYWGQGTQVTVSS | low polyreactivity |
| QVQLQESGGGLVQAGGCLSCTSSGTIFGQGDMGWYRQAPGKERELVATINDGASTYYADSVKGRFTISRDTAKNSVYLQKNSLKPDDTAVYYCAVFTDITTYFGYWGQGTQVTVSS | low polyreactivity |
| QVQLQESGGGLVQAGGDLRLSCAASGNIFRDYIMGWYRQAPGKEREFVAGIDRGANTNYADSVKGRFTISRDNAINTVYLQMKSLKPVDTAVYYCAVHTAFVPDFIYWGQGTQVTVSS | low polyreactivity |
| QVQLQESGGGLVQAGGGLRLSCAASGTISGPHVMGSSRQAPRKEREFLAAINVGANTYYADNVKGRFTISRDNAKNTVYLQMNSLKPEDTAVYYCAAVYYGDIGHEYWGQGTQVTVSC | low polyreactivity |
| QVQLQESGGGLVQAGGGLRLSCAASGTISGPHVMGWYRQAPGKEREFVAAINVGANTYYADNVKGRFTISRDNAKNTVYLQMNSLKPEDTAVYYRAAVYYGDIGHEYWGQGTQVTVSC | low polyreactivity |
| QVQLQESGGGLVQAGGILRLSCAACGNIFPSAVMGWYRQALGKEREFVATINSGSNTYYADSVKGRFTISRDNAKNTVYLQMNSLKLEDTAVYYCAAYFKLQAWHTYWGQGTQVTVSS | low polyreactivity |
| QVQLQESGGGLVQAGGILRLSCAASGPISRRSTMGWYRQAPGKERELVTAITRGTNTNYADSVKGRFTISRDNAKNTEYLQMNSLKPEDTAVYYCAAYGVLKPYRGDAVFHRYWGQGTQVTVSS | low polyreactivity |
| QVQLQESGGGLVQAGGNLRLSCAASGYISRWYGMGWYRQAPGKERELVAGMSPGGSTYYADSVKGRITISRDNAKNTVYLQMNSLKPEDTAVYYCAAQDFQDSIYFYWGQGTQVTVSS | high polyreactivity |

| Sequence | polyreactivity (PSR sort gate) |
| --- | --- |
| QVQLQESGGGLVQAGGSLCMSCAASGSISDYIFMCWYRQAPGKVREFVAGIGIGGKTNYADSVKGRFTIRRDNEKYTVYLQMNSLKPEDTALYYCAANATYTDYYAYCGQGTQVTVSS | low polyreactivity |
| QVQLQESGGGLVQAGGSLGCEASGNISTRSEMGWYRQAPGKEREFVATINSGGITNYADSVKGRFTISRDNAKNTVYLRMNSLKPEDTAVYYRAVYGYFSDPYDYWGQGTQVTVSS | low polyreactivity |
| QVQLQESGGGLVQAGGSLRLGCAASGYISGFNEMGWYRQAPGKGRELDAAITYGGITNYADSVKGRFTISRDNAKNTVYLQMNSLKPEDTAMYYCAAGDFDQSNHAYWGQDTQVTVSS | high polyreactivity |
| QVQLQESGGGLVQAGGSLRLICAESGSISQTVYMGWYRQAPGKEREFVAAINAGASTYYADSVKGRFTISRDNAKNTVYLQMNSLKPEDTAVYYCAAEYYSAAYNRYWGQGTQVTVSS | low polyreactivity |
| QVQLQESGGGLVQAGGSLRLICSASGTNFTARFIGWYRQAPGKERELVATITDGGNTNHADSVKGRFTISRDNAKNTVFLQMNSLKPEDAAVYYCAAGEVDIDTLLYWGQGSQVTVSS | low polyreactivity |
| QVQLQESGGGLVQAGGSLRLSCAAIGYISYFVGMGWYRQQPGKEREFVASIADVSNTYYADSVKGRFTISRDNAKNTVYLQRNSLKPEDTAVYYCAVVDSWTYRFDYWGQGTQVTVSS | high polyreactivity |
| QVQLQESGGGLVQAGGSLRLSCAASCTISQEDWMGWYRQAPGKEREFVAAIGLGSNTNYADSLKGRFTISRDNAKNTVYLQMNSLKPEDTAVYYCAVTVWQYSDHVYRGQGTQVTVSS | low polyreactivity |
| QVQLQESGGGLVQAGGSLRLSCAASGAIFDGFNMGWYRQAPGKEGEFVAAISYGASTDYADSVKGRFTVSRDNAKNSVYLQMNSLKPEDTAVYYCAVYDELYHVLVYWGRGTQVTVSS | low polyreactivity |
| QVQLQESGGGLVQAGGSLRLSCAASGNISVTGFMGWYRQAPGKERELVASIGIGGTTYYADSVKGRFSISRDNAKNTVYLQMNSLKPEDTAVYYCAARYLYYAYSYWCQGTQVTVSS | low polyreactivity |
| QVQLQESGGGLVQAGGSLRLSCAASGNISVTGFMGWYRQAPGKERELVASIGIGGTTYYADSVKGRFSISRDNGKNTVYLQLNSLKPEDSAVYYCAARYLYYAYSYWGQGTQVTVSS | low polyreactivity |
| QVQLQESGGGLVQAGGSLRLSCAASGNIYPTVSMGWYRQAPGKEREFVVTIDPGSNTYYADSAKGRFTISRDNAKNTVYLQMNSPKPEDTAVYYCAVVFADWATYGYWGQGTQVTVSS | high polyreactivity |
| QVQLQESGGGLVQAGGSLRLSCAASGNTSDTGYMGWYRQAPGKERKLVASIDYGSNTYYADSVKVRFTISRDNAKNTVYLQMNSLKPEDTAVYYCAAYYIGDYTLVYWGQGTQVTVSS | high polyreactivity |
| QVQLQESGGGLVQAGGSLRLSCAASGSIAHYIFMGWYRQAPGKEREFVAGIGYGGTTNYADSVKGRFTISRDNAKNTVYLQMNSLKPEDTAMYYCAAREATEFYLYYWGQGTQVTVSS | low polyreactivity |
| QVQLQESGGGLVQAGGSLRLSCAASGSIFEELDMGWYRQAPGKEREFVAAIGTGSTTYYADSVKGRFTISRDNAKNTVYLQMNSLKPEDTAVYYCAVDTWARAYLGYWGQGTQVTVSS | high polyreactivity |
| QVQLQESGGGLVQAGGSLRLSCAASGSIFVSVTMGWYRQAPGKERELVASIGRGSTTNHADSVKGRFTISRDNATNIFYLLMNSLNPEDTAVYYCAALESYGKYHGYWGQGTQVTVSS | low polyreactivity |
| QVQLQESGGGLVQAGGSLRLSCAASGSISGPHVMGWYRQAPGKEREFVAAINVGANTYYADNVKGRFTISRDNAKNTVYLQMNSLKPEDTAVYYCAAEYGIYETGHYGIYDYWGQGTQVTVSS | low polyreactivity |
| QVQLQESGGGLVQAGGSLRLSCAASGSISHYIFMGWYRQAPGKEREFVAGIGYGGTTNYADSVKGRFTISRDNAKNTVYLQMNSLKPEDTAMYYCAAREATEFYLYYWGQGTQVTVSS | low polyreactivity |
| QVQLQESGGGLVQAGGSLRLSCAASGSISILENMGWYRQPPGLGRDFVAGIGYGSSTYYADSVKGRFTISRDNAKNTVYQQMNSLKPEDTTVYYCAVVEYQCVTYLYWGQGSQVTVSS | low polyreactivity |
| QVQLQESGGGLVQAGGSLRLSCAASGSISNLIAKGWYRQAQGKEREFVAAIGPGANTNYADSVKGRFTISRDNANNTVSLQMNSLKPDDTAVFYCAVDYYGVAVYHYWGQGTQVTVSS | high polyreactivity |
| QVQLQESGGGLVQAGGSLRLSCAASGSIYDDTYMGWSRQAPGKERELVATIDSGSTTNYADSVKGRITISRDNAKNTVYLQMNSLKPEDTAVYYCAAADSHIDYFDYWGQGTQVTVSS | low polyreactivity |
| QVQLQESGGGLVQAGGSLRLSCAASGTIFCLWAMGWYCQAPGKERELVASISSGGTTYHADSVKGRFTISRDNAKNTVYLQMNSLKPEDTAVYYSAAFYVATAKLGYWGQGSQVTVSS | low polyreactivity |
| QVQLQESGGGLVQAGGSLRLSCAASGTIFDKDDMGWYRQAPGKEREFVAGIDRGGTTNCAGSVKGRFTISRDNAKNTVYLQMISLKPEDTEVYYCAAYYPDIYPFIYRGQGTQVTVSS | high polyreactivity |
